Assay results as given in US7858577B2, “Use of the long pentraxin PTX3 for the treatment of diseases caused by an altered activation of the growth factor FGF-2” (Sigma-Tau Industrie Farmaceutiche Riunite S.p.A., priority 2000, dated 2010).
One block for each molecule: values may come before it.

Legend:
MAE3F2T cells = assay: Effect on FGF-2 dependent autocrine proliferation of MAE3F2T cells; type: cell-based, murine; details: 72 h in 0.4% FCS; PTX3 70 nM, suramin 50 μg/ml, anti FGF-2 antibodies; cell counting
Method: In this experiment we have investigated the effect of PTX3 on the proliferation of the murine aortic endothelial cell line MAE3F2T stably transfected with an expression vector coding for FGF-2 (Gualandris et al. 1996, Cell Growth Diff. 7:147-60). These cells can proliferate in response to a autocrine loop of stimulation induced by endogenous FGF-2 (Gualandris et al. 1996, Cell Growth Diff. 7:14760). MAE3F2T cells were seeded at 10,000/cm^2 in 48-well plates in Dulbecco medium (DMEM) added with 10% FCS. After 24 h at 37° C., adherent cells were washed twice with DMEM without FCS and incubated for 72 at 37° C. in DMEM containing 0.4% FCS in the presence or not of PTX3 (70 nM), anti FGF-2 specific antibodies or suramin (50 μg/ml). Suramin is known for its capacity to sequestrate extracellular FGF-2 and inhibits its biological activities (Rusnati et al., 1996, Mol. Biol. Cell. 7:369-381). At the end of incubation cells were trypsinized and counted in a Burker chamber.

FGF-2 [1] = target: T1, FGF-2 (Homo sapiens, UniProt P09038); assay: 125I-FGF-2 binding to plastic immobilised proteins; details: wells coated with 200 nM PTX3 or CRP or 2 μg/ml control proteins, 30 ng 125I-FGF-2, 2 h room temperature
T1 construct: made in house
Method: (§1) 96 wells plates were coated at 4° C. with 100 μl of NaHCO3 pH 9.6 containing PTX3 or C reactive protein (200 nM) or alternatively 2 μg/ml of the following proteins used as negative control: bovine serum albumin, fibronectin, gelatine or laminin. After incubation, wells were washed 3 times with PBS and blocked 2 h at room temperature with 200 μl of 1 mg/ml of BSA in PBS. At the end of incubation wells were washed 3 times with PBS and subsequently incubated with 30 ng of ^125I-FGF-2 for 2 h at room temperature. Wells were subsequently washed 3 times with PBS and bound ^125I-FGF-2 was recovered by washing each well twice with 200 μl of 2% SDS in water. Levels of ^125I-FGF-2 were measured in a gamma counter.

FGF-2 [2] = target: T1, FGF-2; assay: Capacity of PTX3 to bind FGF in solution (Superose 12 size exclusion chromatography, dot-blot); type: binding; details: FGF-2 pre-incubated with PTX3 10 min at 4° C., Superose 12 column
Method: This experiment has been performed in order to evaluate PTX3 binding to FGF-2. PTX3 has been produced as described by Bottazzi et al., 1997, J. Biol. Chem. 272:32817-32823. Human recombinant FGF-2 has been produced as described by Isacchi A. et al., Proc. Natl. Acad. Sci. U.S.A. (1991), 88:2628-32. When necessary, FGF-2 has been labelled with ^125I following the method described by Isacchi et al. (see below).
100 μl of PBS containing 1 μg of FGF-2, (or alternatively 1 μg of PTX3) were chromatographed on a size exclusion fast protein liquid chromatography Superose 12 column (Pharmacia): this column is able to separate proteins depending on their molecular weight. The column was eluted with PBS at a flow rate equal to 1 ml/minute and 1 ml fractions were collected and analyzed by dot, blot with specific antibodies for the two proteins. In order to evaluate PTX3 binding to FGF-2 the two proteins ([…] and 1 μg, respectively), were mixed in 100 μl PBS and incubated at 4° C. for 10 min. before loading onto the column. Fractions were collected and analysed by dot-blot with anti FGF-2 specific antibodies. […] In the same conditions PTX3 (450.000 D) is eluted with the void volume of the column (7 ml.) When FGF-2 pre-incubated with PTX3 for.

FGF2MAE3F2T cells [3] = assay: Invasive behaviour of PTX3 over-expressing FGF2MAE3F2T clones on three-dimensional fibrin gels; type: cell-based, murine; details: PTX3 over-expressing clones (cDNA transfection) vs parental cells, after 2 days, image analysis
From the text: (§2) Murine endothelial cells overexpressing FGF-2, named FGF2MAE3F2T (Gualandris et al. 1996, Cell Growth Diff. 7:147-60) were transfected with human PTX3 full length cDNA subcloned in the commercial expression vector pLXSH (Clontech).
(§3) In vitro studies on the transfected cell lines obtained were, performed to study the effect of PTX3 over-expression on FGF-2-dependent proliferation of FGF2MAE3F2T cells and their invasive behaviour on three-dimensional fibrin gels.
To evaluate the invasive behaviour of FGF2MAE3F2T clones over-expressing PTX3 on three-dimensional fibrin gels, cell aggregates were prepared on agarose-coated plates exactly as described (Gualandris et al. 1996, Cell Growth Diff. 7:147-60). These aggregates were seeded onto fibrin-coated 48 well-plates. Immediately after seeding, 250 µl of calcium-free medium containing fibrinogen (2.5 mg/ml) and thrombin (250 mU/ml) were added to each well and allowed to gel for 5 min at 37° C. Then, […] of culture medium were added on the top of the gel. In all the, experiments, the fibrinolytic inhibitor trasylol was added to the gel and to the culture medium at 200 KIU/ml to prevent the dissolution of the substrate. Formation of radially growing cell sprouts was evaluated after 2 days by computerized image analysis.

FGF2MAE3F2T cells [4] = assay: Proliferation of FGF2MAE3F2T clones over-expressing PTX3; type: cell-based, murine; details: clones transfected with human PTX3 full length cDNA (pLXSH) vs parental cells, 0.4% FCS
Method: as §2, §3
After 24 h at 37° C., adherent cells were washed twice with DMEM without FCS and incubated for different period of time at 37° C. in DMEM containing 0.4% FCS. At the end of incubations cells were trypsinized and counted in a Burker chamber.

[5] = tested on: low affinity receptors (HSPGs) on GM7373 cells; assay: Effect of PTX3 on 125I-FGF-2 binding to low affinity receptors on endothelial cells; type: cell-based, bovine; details: 125I-FGF-2 10 ng/ml, 2 h at 4° C., increasing concentrations of PTX3
Method: (§4) Transformed foetal bovine aortic endothelial cells GM7373 were seeded at 80,000 cells/cm^2 in 24-well dishes in Eagle's minimal essential medium (Eagle's MEM) containing 10% FCS. After 24 h at 37° C. adherent cells were washed twice with Eagle's MEM without FCS and subsequently incubated for 2 h at 4° C. with ^125I-FGF-2 (10 ng/ml) in Eagle's MEM containing 0.15% gelatine and 20 mM HEPES pH 7.5 in the absence or in the presence of increasing concentrations of PTX3. At the end of incubation the amount of ^125I-FGF-2 bound to low (HSPGs) and high affinity receptors (FGFR) was evaluated as described by Moscatelli, 1987 J. Cell. Physiol. 131:123-30. Briefly cells were rinsed twice with 2 M NaCl in 20 mM HEPES buffer (pH 7.5) to remove ^125I-FGF-2 bound to low-affinity binding sites and twice with 2 M NaCl in 20 mM sodium acetate (pH 4.0) to remove ^125I-FGF-2 bound to high-affinity binding sites. Non-specific binding was measured in the presence of a 100-fold molar excess of unlabeled FGF-2 and subtracted from all the values.

[6] = tested on: neovascularization induced in vivo by FGF-2; assay: Chick embryo chorioallantoic membrane (CAM) assay, neovascularization induced by FGF-2; details: gelatin sponge, FGF-2 500 ng/sponge, PTX3 5 ug/sponge, scored after 4 days
Method: The antiangiogenic potential of PTX3 was evaluated in vivo in the chick embryo chorioallantoic membrane (CAM) assay. Briefly, a window was opened in the egg shell of 3 day-old fertilized chicken eggs. At day 8, gelatin sponges were implanted on the CAMs and adsorbed with 10 ul of PBS alone or containing FGF-2 (at 500 ng/sponge) in the absence or in the presence of PTX3 (5 ug/sponge) (5-6 embryos per group).

FGF-2 [7] = target: T1, FGF-2; assay: Dissociation constant (Kd) of FGF-2/PTX3 interaction, Scatchard plot; type: binding; details: increasing doses of 125I-FGF-2 on plastic immobilised PTX3, Scatchard plot
Method: With this experiment the dissociation constant (Kd) FGF-2/PTX3 interaction has been determined. For this purpose increasing doses of ^125I-FGF-2 were incubated with plastic immobilised PTX3 and binding results were analysed by Scatchard plot. […] This affinity is similar to the affinity previously calculated for the interaction of PTX3 with its physiological ligand C1q.

[8] = tested on: high affinity receptors (FGFR) on GM7373 cells; assay: Effect of PTX3 on 125I-FGF-2 binding to high affinity receptors on endothelial cells; type: cell-based, bovine; details: 125I-FGF-2 10 ng/ml, 2 h at 4° C., increasing concentrations of PTX3
Method: as §4

[9] = target: T2, interaction between 125I-FGF-2 and plastic immobilised PTX3 (Homo sapiens, UniProt P09038+P26022); assay: 125I-FGF-2 binding to plastic immobilised PTX3 in the presence of an excess of competitor; details: excess of competitor: FGF-2 or Cytocrome C 100 nM, soluble PTX3 300 nM
T2 construct: made in house
Method: as §1
In a second set of experiments the binding of ^125I-FGF-2 to plastic immobilised PTX3 has been tested in the presence of an excess of both native or heat denatured cold FGF-2 (100 nM), in the presence of similar Cytocrome C concentrations or in the presence of an excess of soluble PTX3 (300 nM).

GM 7373 cells = assay: Effect of PTX3 on proliferation induced by other mitogens (FCS, DAG, TPA, EGF, VEGF); type: cell-based, bovine; details: 10% FCS, 5 μg/ml DAG, 10 ng/ml TPA, 30 ng/ml EGF or 30 ng/ml VEGF
Method: GM 7373 cells were seeded at 75,000 cells/cm^2 in 48-well plates in Eagle MEM containing 10% FCS. After 24 h at 37° C. adherent cells were washed twice with Eagle's MEM without FCS and subsequently incubated for 24 h at 37° C. in Eagle's MEM containing 0.4% FCS in the absence or in the presence of FGF-2 (10 ng/ml) and increasing concentrations of PTX3. At the end of incubation cells were trypsinized and counted. In a different set of experiments GM 7373 cells were treated as described above in the presence of different mitogenic stimuli: 10% FCS; 5 μg/ml dyacyl-glycerol (DAG); 10 ng/ml phorbol ester (TPA) 30 ng/ml epidermal growth factor (EGF) or 30 ng/ml vascular endothelial growth factor (VEGF). Results reported in FIG. 7 shown that PTX3 inhibits the mitogenic activity exerted on endothelial cells by FGF-2 in a dose-dependent manner with an ID50 equal to 30 nM. This value is similar to the Kd calculated for the interaction FGF-2-PTX3.

FGF-2 [10] = target: T1, FGF-2; assay: Capacity of biotinylated PTX3 to bind plastic immobilised FGF-2; type: binding; details: ELISA, streptavidin HRP, 405 nm
Method: 100 μl of NaHCO3 pH 9.6 containing 500 ng of FGF-2 or of the complement component C1q were incubated 18 h at 4° C. in 96 wells plastic plates. At the end of incubation wells were washed 3 times with PBS and subsequently incubated 2 h at room temperature with 200 μl of PBS containing 1 mg/ml of Bovine Serum Albumin (BSA). At the end of incubation wells were washed again 3 times with PBS and incubated with 30 ng/ml of ^125I-FGF-2 in presence of increasing amounts of biotinylated PTX3 in 100 μl of PBS (2 h at room temperature). Alternatively wells were adsorbed with increasing doses of FGF-2 or C1q and incubated with 100 ng/ml of biotinylated PTX3 in 100 μl of PBS. After this incubation wells were washed 3 times with PBS and incubated 1 h at room temperature with 100 μl of streptavidin HRP conjugate ( 1/2000). Reaction was developed by adding the chromogen microwell peroxidase substrate system ABTS (Kirkegaard & Perry Laboratories). Plates were read in an automatic ELISA reader at 405 nm.

T2 sequence (P09038 134-288): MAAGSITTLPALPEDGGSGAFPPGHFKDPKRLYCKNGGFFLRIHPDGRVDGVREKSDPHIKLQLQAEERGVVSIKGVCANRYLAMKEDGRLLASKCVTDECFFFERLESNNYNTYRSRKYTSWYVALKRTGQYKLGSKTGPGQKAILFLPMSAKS
T2 sequence (P26022 18-381): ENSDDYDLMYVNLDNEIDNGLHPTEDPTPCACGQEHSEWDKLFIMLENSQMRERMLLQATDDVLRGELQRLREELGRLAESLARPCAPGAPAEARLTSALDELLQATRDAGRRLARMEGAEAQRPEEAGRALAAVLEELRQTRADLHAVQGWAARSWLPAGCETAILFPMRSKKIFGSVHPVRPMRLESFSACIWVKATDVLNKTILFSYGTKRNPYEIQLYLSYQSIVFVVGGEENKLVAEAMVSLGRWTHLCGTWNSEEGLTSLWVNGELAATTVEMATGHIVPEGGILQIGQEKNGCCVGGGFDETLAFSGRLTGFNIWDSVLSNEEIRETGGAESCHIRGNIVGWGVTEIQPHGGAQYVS
T1 sequence (P09038 134-288): as the sequence (P09038 134-288) above

Molecule: Cc1ccc(C(=O)Nc2ccc(S(=O)(=O)O)c3cc(S(=O)(=O)O)cc(S(=O)(=O)O)c23)cc1NC(=O)c1cccc(NC(=O)Nc2cccc(C(=O)Nc3cc(C(=O)Nc4ccc(S(=O)(=O)O)c5cc(S(=O)(=O)O)cc(S(=O)(=O)O)c45)ccc3C)c2)c1 [suramin, reference compound]
inhibition of FGF-2 dependent proliferation of MAE3F2T cells (MAE3F2T cells): in a manner similar to that exerted by anti FGF-2 antibodies and suramin

Molecule: PTX3: long pentraxin PTX3; preferred is human PTX3, sequence described in WO99/32516; produced as by Bottazzi et al. 1997
binding of PTX3 to FGF-2 in solution (change of FGF-2 chromatographic behaviour) (FGF-2 [2]): FGF-2 was eluted from the column with a retention volume equal to PTX3 alone | invasive capacity on fibrin gels (radially growing cell sprouts) (FGF2MAE3F2T cells [3]): significantly lower | effect of PTX3 over-expression on FGF2MAE3F2T cells proliferation (FGF2MAE3F2T cells [4]): inhibits FGF2MAE3F2T cells proliferation | inhibition of FGF-2 dependent proliferation of MAE3F2T cells (MAE3F2T cells): inhibiting their FGF-2 dependent proliferation | inhibition of FGF-2 binding to low-affinity receptors on endothelial cells [5]: able to inhibit in a dose-dependent manner | effect on neovascularization induced in vivo by FGF-2 (angiogenic response score 0-4+) [6]: able to block the neovascularization | Kd (FGF-2 [7]): 8 to 16 nM | inhibition of FGF-2 binding to high-affinity receptors on endothelial cells [8]: able to inhibit in a dose-dependent manner | binding of 125I-FGF-2 to plastic immobilised protein (FGF-2 [1]): FGF-2 binds plastic immobilised PTX3 | inhibition of the interaction between 125I-FGF-2 and plastic immobilised PTX3 [9]: inhibited the interaction | inhibitory activity when other mitogens are used to induce cellular proliferation (GM 7373 cells): not detectable

Molecule: biotinylated PTX3: PTX3 labelled with biotin for the ELISA binding test
binding of biotinylated PTX3 to plastic immobilised FGF-2 (FGF-2 [10]): FGF-2 immobilised on plastic wells is able to bind biotinylated PTX3

Molecule: heat-inactivated FGF-2: heat denatured unlabelled FGF-2 used as competitor
inhibition of the interaction between 125I-FGF-2 and plastic immobilised PTX3 [9]: not able to bind PTX3

Further lines, results first:

binding of 125I-FGF-2 to plastic immobilised protein (FGF-2 [1]): reacts poorly | binding of 125I-FGF-2 to plastic immobilised protein (FGF-2 [1]; listed as C-reactive protein): does not bind FGF-2
Molecule: CRP: short pentraxin homologous to PTX3, used as comparison protein

inhibition of the interaction between 125I-FGF-2 and plastic immobilised PTX3 [9]: inhibited the interaction
Molecule: cold FGF-2: human recombinant growth factor FGF-2, unlabelled, used as competitor
